From US6537804B1, “BCR-ABL directed compositions and uses for inhibiting Philadelphia chromesome stimulated cell growth” (Board of Regents, The University of Texas Systems, priority 1995, dated 2003)
Non-standard residues stand in square brackets, D forms with d. No end group written: not given here. pY = N[C@@H](Cc1ccc(OP(=O)(O)O)cc1)C(=O)O

T1: amino terminal SH2 domain of Ras Gap (Homo sapiens, UniProt P20936)
T1 construct: the amino terminal SH2 domain of Ras Gap was expressed as a fusion protein containing the glutathione S transferase protein (GST); made in house
T1 sequence (P20936 181-272 limits assumed): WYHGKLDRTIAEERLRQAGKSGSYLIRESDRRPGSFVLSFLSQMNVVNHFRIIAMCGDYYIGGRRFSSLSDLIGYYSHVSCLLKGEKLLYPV

T2: c-Abl SH2 (Mus musculus, UniProt P00520)
T2 construct: The inventors performed similar studies with the SH2 domain of Abl; made in house
T2 sequence (P00520 127-217 limits assumed): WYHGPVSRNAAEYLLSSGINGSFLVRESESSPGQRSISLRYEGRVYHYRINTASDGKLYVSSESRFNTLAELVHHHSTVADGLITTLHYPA


Tests used:
SH2 domain of Grb2 = SH2 domain of Grb2 (Homo sapiens, UniProt P62993); assay: Binding of Bcr peptide to Grb2; details: tyrosine 177 phosphorylated peptide
[1] = biological target: T1, amino terminal SH2 domain of Ras Gap; assay: Binding of phosphotyrosine tryptic peptides of Bcr-Abl to GST-Gap SH2; details: phosphotyrosine tryptic peptides of p210 Bcr-Abl; no binding to GST
Text: The inventors have conducted studies in which the amino terminal SH2 domain of Ras Gap was expressed as a fusion protein containing the glutathione S transferase protein (GST). These studies involve mixing GST-Gap SH2 with phosphotyrosine tryptic peptides of Bcr-Abl.

c-Abl SH2 = biological target: T2, c-Abl SH2; assay: Binding of phosphotyrosine tryptic peptides of Bcr-Abl to GST-Abl SH2; details: phosphotyrosine tryptic peptides of p210 Bcr-Abl; no binding to GST
Text: FIG. 10A and FIG. 10B show an absorbed tryptic map of p210. GST-Abl SH2 binds phosphotyrosine tryptic peptide 3, which contains tyrosine 283. p210 Bcr-Abl labeled in the in vitro kinase assay from K562 cells was purified on SDS gels, digested with trypsin and the digest was split in two parts. One was absorbed with GST (FIG. 10A) and the other with GST-Abl SH2 (FIG. 10B). […] The dashed circles identify peptides lacking in the GST-Abl SH2 absorbed fractions.
The inventors performed similar studies with the SH2 domain of Abl. These were performed with a mouse c-Abl SH2 sequence, which differs by only two amino acids from the human sequence within the SH2 domain.

P210 BCR-ABL = biological target: T3, P210 BCR-ABL (Homo sapiens, UniProt P00519+P11274); assay: In vivo tyrosine phosphorylation of truncated Bcr proteins in COS-1 cells, anti-pTyr Western blot; assay type: cell-based; details: COS-1 cells coexpressing p210 Bcr-Abl
T3 construct: expressed in transfected cells; host or cells: COS-1
Text: FIG. 6A and FIG. 6B. In vivo tyrosine phosphorylation of truncated Bcr first exon sequences by Bcr-Abl. COS-1 vectors expressing Bcr150, Bcr221, and Bcr413 proteins, respectively, were expressed in COS-1 cells in the presence and absence of […].
The next tyrosine is at residue 177, and it is expected to be phosphorylated by Bcr-Abl (Puil et al., 1994). Bcr221 is tyrosine phosphorylated, but as with Bcr413, only in the presence of Bcr-Abl.
Transient transfections of COS1 cells were performed by the diethylaminoethyl (DEAE)-Dextran procedure. Transfection was initiated when COS1 cells were about 60%-80% confluent. After washing once with phosphate-buffered saline (PBS) and once with Tris-buffered Saline-0.02% Dextrose (TBS-D), cells were incubated with TBS-D containing 0.2 mg/ml DEAE-Dextran and 2 μg/ml of each added plasmid. The supernatant was then removed after 5-10 minutes when the cells started to round up and shrink.
After washing once with TBS-D and once with PBS, the cells were incubated in DMEM supplemented with 10% fetal calf serum and 100 μg/ml of chloroquine at 37° C. The chloroquine containing media was removed after 3-5 hours and the cells were washed three times with DMEM without fetal calf serum. The cells were then incubated in DMEM supplemented with 10% fetal calf serum at 37° C. for 2-3 days before harvesting.
COS-1 vectors expressing Bcr159, Bcr221, and Bcr413 proteins, respectively, were expressed in COS-1 cells in the presence and absence of p210 Bcr-Abl.

simian Grb2 protein = assay: Co-immunoprecipitation of Grb2 with p160 BCR from COS1 cells, anti-Grb2 Western blotting; assay type: binding; details: COS1 cells coexpressing p145 c-ABL(1b)
Protocol: Anti-Grb2 Western blotting was performed on anti-BCR (1256-1271) antibody immunoprecipitates of lysates from COS1 cells cotransfected p145 c-ABL with either wild type p160 BCR (lanes 1 and 2) or p160 BCR (F177) (lanes 3 and 4) mutant. Lanes 2 and 4 are immunoprecipitation with pre-blocked anti-BCR (1256-1271) antibody. COS1 cells express an endogenous simian Grb2 protein detected by Western blotting (FIG. 18, lane 1). P160 BCR and p145 c-ABL(1b) were separately or simultaneously expressed in COS1 cells. Two days after transfection, cells were harvested. The cell lysates were clarified by ultracentrifugation and the supernatants were incubated with either anti-BCR c-terminal (1256-1271) antibody (FIG. 18, lanes 2, 4 and 6) or peptide preblocked antibody (FIG. 18, lanes 3, 5 and 7). The immunoprecipitated proteins were then fractionated by a 10% polyacrylamide SDS PAGE and then transferred to a p-immoblin membrane. The membrane was then blotted by an anti-Grb2 antibody (FIG. 18). In this study, p145 c-ABL was coexpressed with either wild type p160 BCR or the mutant p160 BCR(F177) in COS1 cells. Cell lysates were subjected to immunoprecipitation by anti-BCR C-terminal (1256-1271) antibody and the immunoprecipitates were analyzed by Western blotting with an anti-Grb2 antibody.

Sequence of SH2 domain of Grb2 (P62993 whole entry, the tested form may be a part): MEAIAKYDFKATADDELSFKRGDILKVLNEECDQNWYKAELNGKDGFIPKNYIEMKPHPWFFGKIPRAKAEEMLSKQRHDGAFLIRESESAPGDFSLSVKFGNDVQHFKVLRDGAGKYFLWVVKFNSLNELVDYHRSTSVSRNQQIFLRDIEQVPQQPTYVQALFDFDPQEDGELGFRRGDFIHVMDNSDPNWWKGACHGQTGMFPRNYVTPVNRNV
T3 sequence (P11274+P00519 fused): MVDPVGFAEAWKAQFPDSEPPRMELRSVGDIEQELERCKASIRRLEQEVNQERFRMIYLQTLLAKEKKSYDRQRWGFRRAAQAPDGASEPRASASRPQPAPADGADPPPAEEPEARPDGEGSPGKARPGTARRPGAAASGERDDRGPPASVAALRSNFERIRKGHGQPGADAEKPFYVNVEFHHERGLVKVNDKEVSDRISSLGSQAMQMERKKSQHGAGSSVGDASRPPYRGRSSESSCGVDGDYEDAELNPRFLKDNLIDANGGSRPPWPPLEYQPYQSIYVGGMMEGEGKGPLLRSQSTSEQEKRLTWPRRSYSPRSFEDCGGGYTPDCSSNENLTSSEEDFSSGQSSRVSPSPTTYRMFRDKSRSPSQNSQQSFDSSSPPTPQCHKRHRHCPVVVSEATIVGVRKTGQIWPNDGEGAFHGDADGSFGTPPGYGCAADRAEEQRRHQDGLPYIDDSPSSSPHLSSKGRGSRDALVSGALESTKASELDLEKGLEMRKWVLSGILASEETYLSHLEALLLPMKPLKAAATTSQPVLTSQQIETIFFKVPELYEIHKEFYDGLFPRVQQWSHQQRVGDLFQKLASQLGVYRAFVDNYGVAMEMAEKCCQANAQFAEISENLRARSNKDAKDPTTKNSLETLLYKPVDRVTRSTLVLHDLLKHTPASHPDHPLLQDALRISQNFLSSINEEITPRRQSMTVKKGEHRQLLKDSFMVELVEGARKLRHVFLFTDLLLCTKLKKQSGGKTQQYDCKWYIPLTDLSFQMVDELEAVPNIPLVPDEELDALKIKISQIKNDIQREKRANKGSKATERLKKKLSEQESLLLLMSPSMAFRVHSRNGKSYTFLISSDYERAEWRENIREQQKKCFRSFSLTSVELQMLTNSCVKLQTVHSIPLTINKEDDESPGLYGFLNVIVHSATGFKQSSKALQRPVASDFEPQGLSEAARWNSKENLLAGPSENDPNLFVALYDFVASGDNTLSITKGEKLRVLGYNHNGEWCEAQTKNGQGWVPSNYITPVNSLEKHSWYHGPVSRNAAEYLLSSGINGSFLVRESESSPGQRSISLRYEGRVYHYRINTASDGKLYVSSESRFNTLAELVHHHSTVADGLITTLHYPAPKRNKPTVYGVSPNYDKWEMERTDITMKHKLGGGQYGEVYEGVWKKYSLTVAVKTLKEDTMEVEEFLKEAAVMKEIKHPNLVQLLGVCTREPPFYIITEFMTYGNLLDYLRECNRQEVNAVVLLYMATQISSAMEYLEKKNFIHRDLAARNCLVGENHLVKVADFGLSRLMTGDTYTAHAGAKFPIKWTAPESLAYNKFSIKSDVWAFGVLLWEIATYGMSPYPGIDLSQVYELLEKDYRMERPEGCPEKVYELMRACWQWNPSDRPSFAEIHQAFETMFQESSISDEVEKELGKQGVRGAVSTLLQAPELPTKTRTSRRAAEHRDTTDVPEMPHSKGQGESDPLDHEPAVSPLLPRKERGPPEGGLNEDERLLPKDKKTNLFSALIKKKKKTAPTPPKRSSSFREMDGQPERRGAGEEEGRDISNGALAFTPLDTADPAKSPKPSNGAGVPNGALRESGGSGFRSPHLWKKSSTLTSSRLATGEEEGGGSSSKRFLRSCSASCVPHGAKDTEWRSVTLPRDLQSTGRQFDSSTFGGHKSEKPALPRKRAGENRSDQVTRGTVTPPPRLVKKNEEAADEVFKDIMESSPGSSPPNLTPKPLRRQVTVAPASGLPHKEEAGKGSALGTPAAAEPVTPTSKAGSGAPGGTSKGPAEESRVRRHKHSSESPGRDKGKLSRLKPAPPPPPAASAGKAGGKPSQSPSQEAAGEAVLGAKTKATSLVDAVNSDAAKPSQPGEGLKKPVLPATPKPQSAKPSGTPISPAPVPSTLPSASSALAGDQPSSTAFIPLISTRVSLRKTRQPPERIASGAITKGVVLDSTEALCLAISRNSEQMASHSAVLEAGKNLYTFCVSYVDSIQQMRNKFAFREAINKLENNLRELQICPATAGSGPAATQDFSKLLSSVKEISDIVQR

| Molecule | Binding to GST-Ras Gap SH2 fusion protein [1] | Binding to GST-Abl SH2 (c-Abl SH2) | Co-immunoprecipitation of simian Grb2 protein by anti-BCR C-terminal (1256-1271) antibody (simian Grb2 protein) | further results |
| --- | --- | --- | --- | --- |
| GHGQPGADAEKPFpY^177VNVE (GHGQPGADAEKPF[pY]VNVE) [Bcr Peptide 164-181] |  |  |  | Binding to the SH2 binding site on Grb2 (SH2 domain of Grb2): binds; Binding to the SH2 binding site on Grb2 (SH2 domain of Grb2; listed as SEQ ID NO:8): strongly binds |
| NSLETLLYK (NSLETLL[pY]K) [#8, phosphotyrosine tryptic peptide 8 of p210 Bcr-Abl, outside of the first exon] | specifically bound | bind |  |  |
| FLKDNLIDANGGSRPPWPPLEYQPYQSIYVGGMMEGEGK (also: phosphotyrosine, position not given here) [#3, phosphotyrosine tryptic peptide 3 of p210 Bcr-Abl] | specifically bound | bind |  |  |
| Bcr159: amino acids 1-159 of Bcr, N-terminal fragment (protein) MVDPVGFAEAWKAQFPDSEPPRMELRSVGDIEQELERCKASIRRLEQEVNQERFRMIYLQTLLAKEKKSYDRQRWGFRRAAQAPDGASEPRASASRPQPAPADGADPPPAEEPEARPDGEGSPGKARPGTARRPGAAASGERDDRGPPASVAALRSNFE |  |  |  | Tyrosine phosphorylation by Bcr-Abl in cells (P210 BCR-ABL): not |
| wild type p160 PCR: wild type full length human p160 BCR tyrosine phosphorylated by p145 c-ABL(1b) (protein) MVDPVGFAEAWKAQFPDSEPPRMELRSVGDIEQELERCKASIRRLEQEVNQERFRMIYLQTLLAKEKKSYDRQRWGFRRAAQAPDGASEPRASASRPQPAPADGADPPPAEEPEARPDGEGSPGKARPGTARRPGAAASGERDDRGPPASVAALRSNFERIRKGHGQPGADAEKPFYVNVEFHHERGLVKVNDKEVSDRISSLGSQAMQMERKKSQHGAGSSVGDASRPPYRGRSSESSCGVDGDYEDAELNPRFLKDNLIDANGGSRPPWPPLEYQPYQSIYVGGMMEGEGKGPLLRSQSTSEQEKRLTWPRRSYSPRSFEDCGGGYTPDCSSNENLTSSEEDFSSGQSSRVSPSPTTYRMFRDKSRSPSQNSQQSFDSSSPPTPQCHKRHRHCPVVVSEATIVGVRKTGQIWPNDGEGAFHGDADGSFGTPPGYGCAADRAEEQRRHQDGLPYIDDSPSSSPHLSSKGRGSRDALVSGALESTKASELDLEKGLEMRKWVLSGILASEETYLSHLEALLLPMKPLKAAATTSQPVLTSQQIETIFFKVPELYEIHKEFYDGLFPRVQQWSHQQRVGDLFQKLASQLGVYRAFVDNYGVAMEMAEKCCQANAQFAEISENLRARSNKDAKDPTTKNSLETLLYKPVDRVTRSTLVLHDLLKHTPASHPDHPLLQDALRISQNFLSSINEEITPRRQSMTVKKGEHRQLLKDSFMVELVEGARKLRHVFLFTDLLLCTKLKKQSGGKTQQYDCKWYIPLTDLSFQMVDELEAVPNIPLVPDEELDALKIKISQIKNDIQREKRANKGSKATERLKKKLSEQESLLLLMSPSMAFRVHSRNGKSYTFLISSDYERAEWRENIREQQKKCFRSFSLTSVELQMLTNSCVKLQTVHSIPLTINKEDDESPGLYGFLNVIVHSATGFKQSSNLYCTLEVDSFGYFVNKAKTRVYRDTAEPNWNEEFEIELEGSQTLRILCYEKCYNKTKIPKEDGESTDRLMGKGQVQLDPQALQDRDWQRTVIAMNGIEVKLSVKFNSREFSLKRMPSRKQTGVFGVKIAVVTKRERSKVPYIVRQCVEEIERRGMEEVGIYRVSGVATDIQALKAAFDVNNKDVSVMMSEMDVNAIAGTLKLYFRELPEPLFTDEFYPNFAEGIALSDPVAKESCMLNLLLSLPEANLLTFLFLLDHLKRVAEKEAVNKMSLHNLATVFGPTLLRPSEKESKLPANPSQPITMTDSWSLEVMSQVQVLLYFLQLEAIPAPDSKRQSILFSTEV |  |  | bind specifically |  |
| p160 BCR lacking tyrosine 177: tyrosine 177 to phenylalanine mutant of p160 BCR (protein) MVDPVGFAEAWKAQFPDSEPPRMELRSVGDIEQELERCKASIRRLEQEVNQERFRMIYLQTLLAKEKKSYDRQRWGFRRAAQAPDGASEPRASASRPQPAPADGADPPPAEEPEARPDGEGSPGKARPGTARRPGAAASGERDDRGPPASVAALRSNFERIRKGHGQPGADAEKPFFVNVEFHHERGLVKVNDKEVSDRISSLGSQAMQMERKKSQHGAGSSVGDASRPPYRGRSSESSCGVDGDYEDAELNPRFLKDNLIDANGGSRPPWPPLEYQPYQSIYVGGMMEGEGKGPLLRSQSTSEQEKRLTWPRRSYSPRSFEDCGGGYTPDCSSNENLTSSEEDFSSGQSSRVSPSPTTYRMFRDKSRSPSQNSQQSFDSSSPPTPQCHKRHRHCPVVVSEATIVGVRKTGQIWPNDGEGAFHGDADGSFGTPPGYGCAADRAEEQRRHQDGLPYIDDSPSSSPHLSSKGRGSRDALVSGALESTKASELDLEKGLEMRKWVLSGILASEETYLSHLEALLLPMKPLKAAATTSQPVLTSQQIETIFFKVPELYEIHKEFYDGLFPRVQQWSHQQRVGDLFQKLASQLGVYRAFVDNYGVAMEMAEKCCQANAQFAEISENLRARSNKDAKDPTTKNSLETLLYKPVDRVTRSTLVLHDLLKHTPASHPDHPLLQDALRISQNFLSSINEEITPRRQSMTVKKGEHRQLLKDSFMVELVEGARKLRHVFLFTDLLLCTKLKKQSGGKTQQYDCKWYIPLTDLSFQMVDELEAVPNIPLVPDEELDALKIKISQIKNDIQREKRANKGSKATERLKKKLSEQESLLLLMSPSMAFRVHSRNGKSYTFLISSDYERAEWRENIREQQKKCFRSFSLTSVELQMLTNSCVKLQTVHSIPLTINKEDDESPGLYGFLNVIVHSATGFKQSSNLYCTLEVDSFGYFVNKAKTRVYRDTAEPNWNEEFEIELEGSQTLRILCYEKCYNKTKIPKEDGESTDRLMGKGQVQLDPQALQDRDWQRTVIAMNGIEVKLSVKFNSREFSLKRMPSRKQTGVFGVKIAVVTKRERSKVPYIVRQCVEEIERRGMEEVGIYRVSGVATDIQALKAAFDVNNKDVSVMMSEMDVNAIAGTLKLYFRELPEPLFTDEFYPNFAEGIALSDPVAKESCMLNLLLSLPEANLLTFLFLLDHLKRVAEKEAVNKMSLHNLATVFGPTLLRPSEKESKLPANPSQPITMTDSWSLEVMSQVQVLLYFLQLEAIPAPDSKRQSILFSTEV |  |  | much reduced level |  |
